Test results from patent publication US20200171068A1, “COMPOSITIONS COMPRISING APTAMERS AND NUCLEIC ACID PAYLOADS AND METHODS OF USING THE SAME” (Children's National Medical Center, priority 2017, published 2020).
Entries after “also recorded” stand apart in the source; their conditions may differ.

Legend:
[1] = system: TUBO cells; test: Growth and apoptosis of TUBO cells in vitro; format: cell-based, mouse; conditions: for percentage of apoptotic TUBO cells (Annexin V+): single agent
Method: FIG. 4A-FIG. 4J show how miR-26a chimera inhibits mouse breast cancer growth and protects from chemo-induced myelosuppression. FIG. 4A is a graph showing the binding of c-Kit-aptamer to TUBO cells. […] Cell count (left) and Annexin V^+ cells (%) (right) of the cells cultured with miR-26a chimera or the control (ctrl) were determined by flow cytometry. Asterisks denote the significant difference between ctrl chimera versus miR-26a chimera, and between ctrl chimera+5-FU versus miR-26a chimera+5FU. Data (mean±s.d.) were pooled from two experiments. FIG. 4C is a graph showing miR-26a expression in c-Kit^+ or c-Kit cells harvested from TUBO-derived tumors in BALB/c mice treated with miR-26a chimera (670 pmol/20 g) for 3 days. Data (mean+s.d.) were pooled from two experiments, involving a total of 6 mice per group. FIG. 4D is a graph showing Ezh2 expression in c-Kit^+ or c-Kit− cells harvested from TUBO-derived tumors in BALB/c mice treated with miR-26a chimera (670 pmol/20 g) for 3 days. Data (mean+s.d.) were pooled from two experiments, involving a total of 6 mice per group. FIG. 4E is a graph showing Bak1 expression in c-Kit^+ or c-Kit-cells harvested from TUBO-derived tumors in BALB/c mice treated with miR-26a chimera (670 pmol/20 g) for 3 days. Data (mean+s.d.) were pooled from two experiments, involving a total of 6 mice per group. FIG. 4F is a graph showing miR-26a expression in bone marrow (BM) detected by qPCR at 3 days after intravenous injection with the miR-26a chimera (670 pmol/20 g). Data (mean+s.d.) were pooled from two experiments, involving a total of 6 mice per group. FIG. 4G is a graph showing Bak expression in bone marrow (BM) detected by qPCR at 3 days after intravenous injection with the miR-26a chimera (670 pmol/20 g). Data (mean+s.d.) were pooled from two experiments, involving a total of 6 mice per group. FIG. 4H is a graph showing tumor volume over time. BALB/c mice bearing TUBO cells were treated with miR-26a chimera (670 pmol/20 g) (5 times, gray arrows) and 50 mg/kg 5-FU (3 times, dark grey arrows). Data (mean+s.d.) were pooled from two experiments, involving a total of 6 mice per group. There was significant difference between 5-FU only group versus miR-26a chimera only group (two way repeated-measures ANOVA followed by Bonferroni post-test for day0 to day18 (interaction p-value<0.001). FIG. 4I is a graph showing tumor volume over time after combinational treatment with 5-FU and chimeras. Data (mean+s.d.) were pooled from two experiments, involving a total of 6 mice per group. There was significant difference between 5-FU+ctrl chimera group versus 5-FU+miR-26a chimera group (two way repeated-measures ANOVA followed by Bonferroni post-test for day0 to day21, interaction p-value<0.0001). FIG. 4J is a graph showing the numbers of WBC and PLT in the tumor bearing mice 5 days after 5-FU treatment. Data (mean+s.d.) pooled from two experiments, involving a total of 6 mice per group. *P<0.05, **P<0.01.
A mouse TUBO breast cancer model was used to evaluate the therapeutic potential of miR-26a chimera for the myeloprotection and anti-tumor growth in breast cancer chemotherapy. Binding ability of an aptamer targeting mouse c-Kit to the TUBO cells was first tested by flow cytometry. […] To determine whether the mouse c-Kit-miR-26a chimera can inhibit the growth of mouse breast cancer cells in vitro, the TUBO cells were treated with increasing doses of miR-26a- or control-chimeras, and the viable cells counted under microscope at 2 days after the treatment.

[2] = system: TUBO-derived tumors; test: Syngeneic TUBO breast tumor model in BALB/c mice; format: in vivo, mouse; conditions: for tumor size / growth, monotherapy: chimera 670 pmol/20 g 5 daily injections, 5-FU 50 mg/kg 3 times
Method: BALB/c mice bearing TUBO tumors were treated intravenously with miR-26a chimera (670 pmol/20 g) daily for 5 days. At days 2, 3, and 4, 50 mg/kg 5-FU was intravenously injected. Peripheral blood was collected 5 and 10 days after the initial 5-FU treatment. FIG. 9A is a series of graphs showing the numbers of WBC, RBC, and PLT 5 days after 5-FU treatment. FIG. 9B is a series of graphs showing the numbers of WBC, RBC, and PLT 10 days after 5-FU treatment. Data (mean+s.d.) were pooled from two experiments, involving a total of 6 mice per group. *, P<0.05, **, P<0.01. Xenograft model were generated 8-weeks old female immune-deficient NOD-scid IL2Rgamma^null (NSG™, Jackson Laboratories, Bar Harbar, Me., USA) using human breast cancer cell line. Syngeneic TUBO tumors were established in 8-weeks old female BALB/c mice (from Charles River Animal Facility, Frederick, Md., USA). These tumor-bearing mice were randomly assigned to each treatment group. Eight-week old male C57BL/6 mice and C57BL/6 ly5.2 mice (from Charles River Animal Facility, Frederick, Md., USA) were used for bone marrow transplantation assay. The mouse groups assigned for each treatment were not blinded. No statistical methods were used to pre-determined sample size for the analysis of mouse experiments. All the mice were maintained in the Research Animal Facility at Children's National Institute, Children's National Medical Center. The committee on the Use and Care of Animal at Children's National Institute approved all procedures involving experimental animals. For xenograft models, the NSG mice and BALB/c mice were subcutaneously injected with 2×10^6 viable MDA-MB-231 cells and TUBO cells in their right hind limbs, respectively. After the tumor grew to 1 cm in diameter, mice were randomly divided into the groups for each treatment. For no treatment control, 100 μl saline with 1% mouse serum was intravenously injected through tail vein. […] Tumor sizes were measured in two dimensions every 3 days. Tumor volume (V) was calculated using the following formula: V=(½) S^2×L (S. the shortest dimension; L, the longest dimension). […] For chimera treatment in normal mice, C57BL/6 mice were treated with miR-26a chimera (670 pmol/20 g) everyday for 3 days by intravenous injection. […] Peripheral bloods were collected at day 5 and day 10 after the 5-FU treatment. Complete blood counts were measured by Hemavet 950FS (Drew Scientific, Miami Lakes, Fla., USA).

[3] = system: TUBO-derived tumors; test: Syngeneic TUBO breast tumor model in BALB/c mice; format: in vivo, mouse

Molecule: O=c1[nH]cc(F)c(=O)[nH]1 [5-FU, 5-fluorouracil, reference compound]
- reduction in tumor cell number ([1]; TUBO cells, 7 μM of 5-FU alone): less than 20%
- percentage of apoptotic TUBO cells (Annexin V+) [1]: increased
- leukocytes and thrombocytes after 5-FU ([2]; TUBO-tumor bearing mice, 5-FU 50 mg/kg x3): significant leukopenia and thrombocytopenia
- tumor size / growth, monotherapy [2]: growth retardation

B1: miR-26a chimera: mouse c-Kit DNA aptamer-C3-passenger RNA, passenger RNA-TEG-cholesterol and miR-26a-5p guide strand annealed (SEQ ID NO:6/7, 8, 9) (nucleic acid)
chain 1: GCTCAACGCGGGACGGCTCTCCCATTGAC
chain 2: CCUAUUCUGG
chain 3: GUUACUUGCACG
guide: UUCAAGUAAUCCAGGAUAGGCU
modifications: chemistry not fully specified
- tumor cell number / effects, chimera in combination with 5-FU ([1]; TUBO cells, 5-FU 1 μg/ml (7 μM) plus chimera): enhanced these effects; also recorded: synergistically reduced tumor cells
- IC50 ([1]; TUBO cells, viable cells counted 2 days after treatment, chimera alone, read-out: IC50, reduction in tumor cell number): ~83 nM
- TUBO cell growth (cell count) ([1]; chimera alone, increasing doses): suppressed the growth; also recorded: dose-dependent reduction
- percentage of apoptotic TUBO cells, chimera in combination with 5-FU ([1]; combination): increased
- percentage of apoptotic TUBO cells (Annexin V+) [1]: induced apoptosis; also recorded: increased
- tumor growth, 5-FU combined with chimera ([2]; 5-FU plus miR-26a chimera): most effective growth retardation
- number of leukocytes (WBC) and thrombocytes (PLT), combination with 5-FU ([2]; TUBO-tumor bearing mice, 5 days after 5-FU): nearly doubled
- tumor size / growth, monotherapy [2]: significant decrease of tumor size; also recorded: more effective than 5-FU treatment
- 5-FU-induced leukopenia / myelosuppression in tumor-bearing mice ([2]; chimera daily for 5 days, 5-FU at days 2, 3, 4): ameliorates 5-FU induced myelosuppression; also recorded: largely prevented leukopenia
- Bak expression among c-Kit+ tumor cells ([3]; 670 pmol/20 g, 3 days): not significantly elevated
- Ezh2 expression among c-Kit+ tumor cells ([3]; 670 pmol/20 g, 3 days): specific decrease
- miR-26a among c-Kit+ tumor cells ([3]; 3 days after injection, qPCR): significant increase
- miR-26a levels in c-Kit+ BM cells ([3]; day 3 after single treatment, qPCR): selective increase
- Bak1 expression in c-Kit+ HSPC ([3]; mice that received no 5-FU-treatment): not significantly down-regulated
